B1: VEGF-DΔNΔC [human] / Recombinant human VEGFR-2-Fc chimera [human] (parent complex)
chain 1: FYDIETLKVIDEEWQRTQCSPRETCVEVASELGKSTNTFFKPPCVNVFRCGGCCNEESLICMNTSTSYISKQLFEISVPLTSVPELVPVKVANHTGCKCLPTAPRHPYS
chain 2: ASVGLPSVSLDLPRLSIQKDILTIKANTTLQITCRGQRDLDWLWPNNQSGSEQRVEVTECSDGLFCKTLTIPKVIGNDTGAYKCFYRETDLASVIYVYVQDYRSPFIASVSDQHGVVYITENKNKTVVIPCLGSISNLNVSLCARYPEKRFVPDGNRISWDSKKGFTIPSYMISYAGMVFCEAKINDESYQSIMYIVVVVGYRIYDVVLSPSHGIELSVGEKLVLNCTARTELNVGIDFNWEYPSSKHQHKKLVNRDLKTQSGSEMKKFLSTLTIDGVTRSDQGLYTCAASSGLMTKKNSTFVRVHEKPFVAFGSGMESLVEATVGERVRIPAKYLGYPPPEIKWYKNGIPLESNHTIKAGHVLTIMEVSERDTGNYTVILTNPISKEKQSHVVSLVVYVPPQIGEKSLISPVDSYQYGTTQTLTCTVYAIPPPHHIHWYWQLEEECANEPSQAVSVTNPYPCEEWRSVEDFQGGNKIEVNKNQFALIEGKNKTVSTLVIQAANVSALYKCEAVNKVGRGERVISFHVTRGPEITLQPDMQPTEQESVSLWCTADRSTFENLTWYKLGPQPLPIHVGELPTPVCKNLDTLWKLNATMFSNSTNDILIMELKNASLQDQGDYVCLAQDRKTKKRHCVVRQLTVLERVAPTITGNLENQTTSIGESIEVSCTASGNPPPQIMWFKDNETLVEDSGIVLKDGNRNLTIRRVRKEDEGLYTCQACSVLGCAKVEAFFIIEGAQEKTNLE
B2: VEGF-DΔNΔC [human] / Recombinant human VEGFR-3-Fc chimera [human] (parent complex)
chain 1: B1 chain 1
chain 2: YSMTPPTLNITEESHVIDTGDSLSISCRGQHPLEWAWPGAQEAPATGDKDSEDTGVVRDCEGTDARPYCKVLLLHEVHANDTGSYVCYYKYIKARIEGTTAASSYVFVRDFEQPFINKPDTLLVNRKDAMWVPCLVSIPGLNVTLRSQSSVLWPDGQEVVWDDRRGMLVSTPLLHDALYLQCETTWGDQDFLSNPFLVHITGNELYDIQLLPRKSLELLVGEKLVLNCTVWAEFNSGVTFDWDYPGKQAERGKWVPERRSQQTHTELSSILTIHNVSQHDLGSYVCKANNGIQRFRESTEVIVHENPFISVEWLKGPILEATAGDELVKLPVKLAAYPPPEFQWYKDGKALSGRHSPHALVLKEVTEASTGTYTLALWNSAAGLRRNISLELVVNVPPQIHEKEASSPSIYSRHSRQALTCTAYGVPLPLSIQWHWRPWTPCKMFAQRSLRRRQQQDLMPQCRDWRAVTTQDAVNPIESLDTWTEFVEGKNKTVSKLVIQNANVSAMYKCVVSNKVGQDERLIYFYVTTIPDGFTIESKPSEELLEGQPVLLSCQADSYKYEHLRWYRLNLSTLHDAHGNPLLLDCKNVHLFATPLAASLEEVAPGARHATLSLSIPRVAPEHEGHYVCEVQDRRSHDKHCHKKYLSVQALEAPRLTQNLTDLLVNVSDSLEMQCLVAGAHAPSIVWYKDERLLEEKSGVDLADSNQKLSIQRVREEDAGRYLCSVCNAKGCVNSSASVAVEGSEDKGSME

Variants of: B1
Experiment: ELISA; The same amount of each VEGF-DΔNΔC variant was used; assays conducted three times; parent: 100; read off a plot

Row | Variant | percent of parent [%]
1 | chain 1 FADIETLKVIDEEWQRTQCSPRETCVEVASELGKSTNTFFKPPCVNVFRCGGCCNEESLICMNTSTSYISKQLFEISVPLTSVPELVPVKVANHTGCKCLPTAPRHPYS [chain 1 Y2A] | ~86
2 | chain 1 FYDIETLAVIDEEWQRTQCSPRETCVEVASELGKSTNTFFKPPCVNVFRCGGCCNEESLICMNTSTSYISKQLFEISVPLTSVPELVPVKVANHTGCKCLPTAPRHPYS [chain 1 K8A] | ~88
3 | chain 1 FYDIETLKVADEEWQRTQCSPRETCVEVASELGKSTNTFFKPPCVNVFRCGGCCNEESLICMNTSTSYISKQLFEISVPLTSVPELVPVKVANHTGCKCLPTAPRHPYS [chain 1 I10A] | ~20
4 | chain 1 FYDAETLKVIDEEWQRTQCSPRETCVEVASELGKSTNTFFKPPCVNVFRCGGCCNEESLICMNTSTSYISKQLFEISVPLTSVPELVPVKVANHTGCKCLPTAPRHPYS [chain 1 I4A] | ~100
5 | chain 1 FYDIETLKVIDEEWARTQCSPRETCVEVASELGKSTNTFFKPPCVNVFRCGGCCNEESLICMNTSTSYISKQLFEISVPLTSVPELVPVKVANHTGCKCLPTAPRHPYS [chain 1 Q15A] | ~110
6 | chain 1 FYAIETLKVIDEEWQRTQCSPRETCVEVASELGKSTNTFFKPPCVNVFRCGGCCNEESLICMNTSTSYISKQLFEISVPLTSVPELVPVKVANHTGCKCLPTAPRHPYS [chain 1 D3A] | ~95
7 | chain 1 FYDIETLKVIDAEWQRTQCSPRETCVEVASELGKSTNTFFKPPCVNVFRCGGCCNEESLICMNTSTSYISKQLFEISVPLTSVPELVPVKVANHTGCKCLPTAPRHPYS [chain 1 E12A] | ~100
8 | chain 1 FYDIATLKVIDEEWQRTQCSPRETCVEVASELGKSTNTFFKPPCVNVFRCGGCCNEESLICMNTSTSYISKQLFEISVPLTSVPELVPVKVANHTGCKCLPTAPRHPYS [chain 1 E5A] | ~99
9 | chain 1 FYDIETLKAIDEEWQRTQCSPRETCVEVASELGKSTNTFFKPPCVNVFRCGGCCNEESLICMNTSTSYISKQLFEISVPLTSVPELVPVKVANHTGCKCLPTAPRHPYS [chain 1 V9A] | ~110
10 | chain 1 AYDIETLKVIDEEWQRTQCSPRETCVEVASELGKSTNTFFKPPCVNVFRCGGCCNEESLICMNTSTSYISKQLFEISVPLTSVPELVPVKVANHTGCKCLPTAPRHPYS [chain 1 F1A] | ~89
11 | chain 1 FYDIETAKVIDEEWQRTQCSPRETCVEVASELGKSTNTFFKPPCVNVFRCGGCCNEESLICMNTSTSYISKQLFEISVPLTSVPELVPVKVANHTGCKCLPTAPRHPYS [chain 1 L7A] | ~19
12 | chain 1 FYDIETLKVIDEAWQRTQCSPRETCVEVASELGKSTNTFFKPPCVNVFRCGGCCNEESLICMNTSTSYISKQLFEISVPLTSVPELVPVKVANHTGCKCLPTAPRHPYS [chain 1 E13A] | ~14
13 | chain 1 FYDIETLKVIAEEWQRTQCSPRETCVEVASELGKSTNTFFKPPCVNVFRCGGCCNEESLICMNTSTSYISKQLFEISVPLTSVPELVPVKVANHTGCKCLPTAPRHPYS [chain 1 D11A] | ~100
14 | chain 1 FYDIETLKVIDEEWQATQCSPRETCVEVASELGKSTNTFFKPPCVNVFRCGGCCNEESLICMNTSTSYISKQLFEISVPLTSVPELVPVKVANHTGCKCLPTAPRHPYS [chain 1 R16A] | ~110
15 | chain 1 FYDIETLKVIDEEAQRTQCSPRETCVEVASELGKSTNTFFKPPCVNVFRCGGCCNEESLICMNTSTSYISKQLFEISVPLTSVPELVPVKVANHTGCKCLPTAPRHPYS [chain 1 W14A] | ~62
16 | chain 1 FYDIEALKVIDEEWQRTQCSPRETCVEVASELGKSTNTFFKPPCVNVFRCGGCCNEESLICMNTSTSYISKQLFEISVPLTSVPELVPVKVANHTGCKCLPTAPRHPYS [chain 1 T6A] | ~100

Variants of: B2
Experiment: as above

Row | Variant | percent of parent [%]
17 | chain 1 FYDIETLAVIDEEWQRTQCSPRETCVEVASELGKSTNTFFKPPCVNVFRCGGCCNEESLICMNTSTSYISKQLFEISVPLTSVPELVPVKVANHTGCKCLPTAPRHPYS [chain 1 K8A] | ~87
18 | chain 1 FYDIETLKVIDEEAQRTQCSPRETCVEVASELGKSTNTFFKPPCVNVFRCGGCCNEESLICMNTSTSYISKQLFEISVPLTSVPELVPVKVANHTGCKCLPTAPRHPYS [chain 1 W14A] | ~72
19 | chain 1 FYDIATLKVIDEEWQRTQCSPRETCVEVASELGKSTNTFFKPPCVNVFRCGGCCNEESLICMNTSTSYISKQLFEISVPLTSVPELVPVKVANHTGCKCLPTAPRHPYS [chain 1 E5A] | ~99
20 | chain 1 FYDIETAKVIDEEWQRTQCSPRETCVEVASELGKSTNTFFKPPCVNVFRCGGCCNEESLICMNTSTSYISKQLFEISVPLTSVPELVPVKVANHTGCKCLPTAPRHPYS [chain 1 L7A] | ~3
21 | chain 1 FYDIETLKVADEEWQRTQCSPRETCVEVASELGKSTNTFFKPPCVNVFRCGGCCNEESLICMNTSTSYISKQLFEISVPLTSVPELVPVKVANHTGCKCLPTAPRHPYS [chain 1 I10A] | ~9

— PMC5207153, “Differential Receptor Binding and Regulatory Mechanisms for the Lymphangiogenic Growth Factors Vascular Endothelial Growth Factor (VEGF)-C and -D*^([image sbox.jpg])” (The Journal of Biological Chemistry, 2016)
